Assays:
[1] = system: cardiac myoblasts; assay: Reactive oxygen species assessment (carboxy-DCFDA) in cardiac myoblasts; type: cell-based; details: ApoO cells vs control (FIG. 4D)
From the text: After ethical committee approval, all patients in this study gave written consent for sample collection and molecular analysis prior to inclusion. Patients were carefully selected by physicians from the Department of Cardiology, Toulouse University Hospital, prior to coronary by-pass surgery. Bioinformatics. Microarray expression data from human heart samples were downloaded from the GEO repository (GSE1145). This series consisted of 107 myocardial samples collected from patients undergoing cardiac transplantation whose failure arises from different etiologies (e.g. idiopathic dilated cardiomyopathy, ischemic cardiomyopathy, valvular cardiomyopathy, and hypertrophic cardiomyopathy) and from “normal” organ donors whose hearts cannot be used for transplants. Arrays were intensity normalized and hierarchical clustering (average group linkage, Pearson correlation, threshold r=0.8) was applied to identify groups of co-expressed genes. […] All ApoO sequences within the expression vectors were verified by DNA double strand sequencing using ABI PRISM®BigDye™ Terminator version 3.1 Ready reaction cycle sequencing kit (Life Technologies SAS, Villebon sur Yvette) and loaded on an ABI 3130XL DNA sequencing instrument (Life Technologies SAS, Villebon sur Yvette). […]

[2] = system: U87 cells; assay: Caspase-3 activity in U87 glioblastoma transfectants; type: cell-based, human; details: U87 pTT-ApoO vs control pTT, 100 μM palmitate overnight (FIG. 13)
Experimental: U87 were obtained from the European Collection of Cell Cultures (Salisbury, England). p y, g) U87 cells were cultured in Dulbecco's modified Eagle medium (Life Technologies SAS, Villebon sur Yvette) adjusted to contain 1.5 g/liter sodium bicarbonate and supplemented with antibiotic-antimycotic solution (Life Technologies SAS, Villebon sur Yvette) and 10% fetal bovine serum (FBS, AbCys s.a., Paris). Cells were plated on 10-cm diameter tissue culture dish and grown in a 5% CO2 incubator at 37° C. with saturating humidity with medium changes every 2 days. U87 glioblastomas were stably transfected by electroporation and pools of transfectants were selected as previously described (Smih et al 2002). Western Blot Analysis Cultured cells were resuspended in RIPA buffer (0.15 M sodium chloride, 1% NP-40, 0.5% sodium deoxycholate, 0.1% SDS, 50 mM Tris, pH 8) in the presence of a mix protease inhibitors. The lysate was sonicated 6 s and centrifuged at 6,500 g for 10 min. […] Protein immune-band densitometry was quantified with the ImageJ software. […] Caspase-3 activities were measured using the Caspase-3 Substrate IV Fluorogenic substate (VWR, Strasbourg) and a Victor™ X5 2030 multilabel reader (Perkin Elmer, Courtaboeuf). […]
The inventors measured and compared the Caspase-3 activity in • control U87 cells (pTT); and • U87 transfectants cells overexpressing ApoO (pTT-ApoO).

B1: ApoO: 198-amino acid apolipoprotein, SEQ ID NO: 1; tested by overexpression from expression vectors or transgene (protein, listed as Homo sapiens)
chain: MFKVIQRSVGPASLSLLTFKVYAAPKKDSPPKNSVKVDELSLYSVPEGQSKYVEEARSQLEESISQLRHYCEPYTTWCQETYSQTKPKMQSLVQWGLDSYDYLQNAPPGFFPRLGVIGFAGLIGLLLARGSKIKKLVYPPGFMGLAASLYYPQQAIVFAQVSGERLYDWGLRGYIVIEDLWKENFQKPGNVKNSPGTK
- intracellular reactive oxygen species (ROS) [1]: increases
- Caspase-3 activity [2]: significant increase

Source: patent US10272135B2, “Apolipoprotein O and fragments thereof for inducing apoptosis in a cancerous cell” (INSERM (INSTITUT NATIONAL DE LA SANTÉ ET DE LA RECHERCHE …, priority 2014, dated 2019)
